Like-named read-outs stand apart in the source and are kept apart here.
B1: human DHHC15 (Palmitoyl Acyl Transferase, hDHHC15) fused to mVenus (enzyme, UniProt Q96MV8 1-337, looked up)
chain: MRRGWKMALSGGLRCCRRVLSWVPVLVIVLVVLWSYYAYVFELCLVTVLSPAEKVIYLILYHAIFVFFTWTYWKSIFTLPQQPNQKFHLSYTDKERYENEERPEVQKQMLVDMAKKLPVYTRTGSGAVRFCDRCHLIKPDRCHHCSVCAMCVLKMDHHCPWVNNCIGFSNYKFFLQFLAYSVLYCLYIATTVFSYFIKYWRGELPSVRSKFHVLFLLFVACMFFVSLVILFGYHCWLVSRNKTTLEAFCTPVFTSGPEKNGFNLGFIKNIQQVFGDKKKFWLIPIGSSPGDGHSFPMRSMNESQNPLLANEETWEDNEDDNQDYPEGSSSLAVETET
B2: human DHHC15 (Palmitoyl Acyl Transferase, hDHHC15), purified, tag cleaved (enzyme, UniProt Q96MV8 1-337, looked up)
chain: MRRGWKMALSGGLRCCRRVLSWVPVLVIVLVVLWSYYAYVFELCLVTVLSPAEKVIYLILYHAIFVFFTWTYWKSIFTLPQQPNQKFHLSYTDKERYENEERPEVQKQMLVDMAKKLPVYTRTGSGAVRFCDRCHLIKPDRCHHCSVCAMCVLKMDHHCPWVNNCIGFSNYKFFLQFLAYSVLYCLYIATTVFSYFIKYWRGELPSVRSKFHVLFLLFVACMFFVSLVILFGYHCWLVSRNKTTLEAFCTPVFTSGPEKNGFNLGFIKNIQQVFGDKKKFWLIPIGSSPGDGHSFPMRSMNESQNPLLANEETWEDNEDDNQDYPEGSSSLAVETET

Legend:
SEC [1] = target: the molecule itself; experiment: SEC
SEC [2] = target: the molecule itself; experiment: SEC; remark: listed apart in the source

| Protein | stoichiometry N (SEC [1]) | stoichiometry N (SEC [2]) |
| --- | --- | --- |
| B1 | 2 | – |
| B2 | – | 2 |

Reference: PMC7373347 (Current protocols in cell biology, 2020)
